Source: publication PMC4856479 (Nature, 2016)

Assays:
linear di-ubiquitin = linear di-ubiquitin (UniProt P0CG48 1-76; P0CG48 1-76); experiment: ITC
[1] = target: mono-ubiquitin (untagged, native N- and C-termini) (UniProt P0CG48 1-76); experiment: crystal structure

binding result (linear di-ubiquitin): binds
binding result [1]: binds
B1: HOIP-RBR (residues 696–1072) (domain or fragment, human, UniProt Q96EP0 696-1072, looked up)
chain: AQECAVCGWALPHNRMQALTSCECTICPDCFRQHFTIALKEKHITDMVCPACGRPDLTDDTQLLSYFSTLDIQLRESLEPDAYALFHKKLTEGVLMRDPKFLWCAQCSFGFIYEREQLEATCPQCHQTFCVRCKRQWEEQHRGRSCEDFQNWKRMNDPEYQAQGLAMYLQENGIDCPKCKFSYALARGGCMHFHCTQCRHQFCSGCYNAFYAKNKCPEPNCRVKKSLHGHHPRDCLFYLRDWTALRLQKLLQDNNVMFNTEPPAGARAVPGGGCRVIEQKEVPNGLRDEACGKETPAGYAGLCQAHYKEYLVSLINAHSLDPATLYEVEELETATERYLHVRPQPLAGEDPPAYQARLLQKLTEEVPLGQSIPRRRK
